Key:
[1] = biological target: T1, human IL-12 receptor complex (human, UniProt P42701 24-662; Q99665 24-862); assay: cell-based or functional assay
human CD4 on cells = biological target: T2, human CD4 on cells (human, UniProt P01730 26-458); assay: FACS on CD4+ T cells
T2 construct: whole, on cells; also called CD4+ T cells; HEK-CD4-IFN-γ cells

human PD-1 [2] = biological target: T3, human PD-1 (human, UniProt Q15116 25-167, limits assumed); assay: Kd to PD-1 as printed for the construct in Table 19; method not told there; same value as for the parental anti-PD-1 antibody
T3 construct: nivolumab is called an anti-human PD-1 antibody; also called hPD-1
T3 sequence (Q15116 25-167 limits assumed): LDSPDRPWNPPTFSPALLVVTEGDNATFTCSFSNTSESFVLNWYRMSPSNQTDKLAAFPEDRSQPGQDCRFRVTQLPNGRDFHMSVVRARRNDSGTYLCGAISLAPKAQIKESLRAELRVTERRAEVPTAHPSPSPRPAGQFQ

human PD-1 [3] = biological target: T3, human PD-1; assay: Kd column of Table 18; same value as the antibody in Table 17
[4] = biological target: human PD-1 overexpressed on HEK-Blue reporter cells (human, UniProt Q15116 25-288); assay: cell-based or functional assay
Sequence of human PD-1 overexpressed on HEK-Blue reporter cells (Q15116 25-288): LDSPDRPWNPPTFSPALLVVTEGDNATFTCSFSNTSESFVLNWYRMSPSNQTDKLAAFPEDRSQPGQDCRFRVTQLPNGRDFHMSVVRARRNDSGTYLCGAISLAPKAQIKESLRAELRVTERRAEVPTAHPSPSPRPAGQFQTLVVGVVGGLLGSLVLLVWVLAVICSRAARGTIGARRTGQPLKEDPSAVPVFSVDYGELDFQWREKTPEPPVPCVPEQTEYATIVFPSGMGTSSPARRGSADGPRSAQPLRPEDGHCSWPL

[5] = biological target: T1, human IL-12 receptor complex; assay: cell-based or functional assay; remark: listed apart in the source

T1 sequence (Q99665 24-862, chain 2 of 2, other chains not shown): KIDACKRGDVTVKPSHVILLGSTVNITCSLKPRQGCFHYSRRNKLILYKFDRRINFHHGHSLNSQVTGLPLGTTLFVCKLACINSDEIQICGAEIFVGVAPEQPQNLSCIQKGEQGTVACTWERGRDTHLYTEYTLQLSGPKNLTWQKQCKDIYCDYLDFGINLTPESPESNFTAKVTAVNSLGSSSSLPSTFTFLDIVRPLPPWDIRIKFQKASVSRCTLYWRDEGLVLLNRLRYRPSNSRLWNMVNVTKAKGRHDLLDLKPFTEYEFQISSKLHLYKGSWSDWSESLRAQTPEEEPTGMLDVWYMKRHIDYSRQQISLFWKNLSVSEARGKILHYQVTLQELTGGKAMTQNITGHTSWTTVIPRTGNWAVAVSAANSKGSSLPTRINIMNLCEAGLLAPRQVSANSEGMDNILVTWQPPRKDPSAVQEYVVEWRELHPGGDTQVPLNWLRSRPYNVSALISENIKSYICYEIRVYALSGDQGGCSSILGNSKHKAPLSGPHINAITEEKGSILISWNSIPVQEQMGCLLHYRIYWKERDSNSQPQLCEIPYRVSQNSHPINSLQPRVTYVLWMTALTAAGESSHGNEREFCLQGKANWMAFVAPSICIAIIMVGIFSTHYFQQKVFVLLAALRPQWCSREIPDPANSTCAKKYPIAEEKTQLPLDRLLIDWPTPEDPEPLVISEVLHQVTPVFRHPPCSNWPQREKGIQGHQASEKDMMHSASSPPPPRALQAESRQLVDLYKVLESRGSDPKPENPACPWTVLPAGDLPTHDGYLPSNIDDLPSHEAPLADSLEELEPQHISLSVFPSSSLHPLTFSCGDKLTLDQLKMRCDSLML

Binder | IFN-γ release, % of rIL-12, activated CD4+ T cells [1] | binding result (human CD4 on cells) | Kd (human PD-1 [2]) | Kd (human PD-1 [3]) | IL-12 signal transduction, % of rIL-12, HEK-IL-12-PD-1 (high) [4] | IL-12 signal transduction, % of rIL-12, HEK-IL-12-PD-1 (low) [4] | IL-12 signal transduction, % of rIL-12, HEK-IL-12 cells [5]
Fab-IL-12(E59A/F60A)-Fc-CD8 Ab (other) heavy 1: EVQLQQSGPELVKPGASVKMSCKASGYTFTDYYMKWVKQSHGKSLEWIGHINPNNDDTFYTQKFKGRATLTVDKSSSTAYMQLNSLTSEDSAVYYCVRDDYDGGWFAYWGQGTLVTVSSASTKGPSVFPLAPSSKSTSGGTAALGCLVKDYFPEPVTVSWNSGALTSGVHTFPAVLQSSGLYSLSSVVTVPSSSLGTQTYICNVNHKPSNTKVDKKVEPKSCDKPGSGIWELKKDVYVVELDWYPDAPGEMVVLTCDTPEEDGITWTLDQSSEVLGSGKTLTIQVKAAGDAGQYTCHKGGEVLSHSLLLLHKKEDGIWSTDILKDQKEPKNKTFLRCEAKNYSGRFTCWWLTTISTDLTFSVKSSRGSSDPQGVTCGAATLSAERVRGDNKEYEYSVECQEDSACPAAEESLPIEVMVDAVHKLKYENYTSSFFIRDIIKPDPPKNLQLKPLKNSRQVEVSWEYPDTWSTPHSYFSLTFCVQVQGKSKREKKDRVFTDKTSATVICRKNASISVRAQDRYYSSSWSEWASVPCSGGGGSGGGGSGGGGSGGGGSGRNLPVATPDPGMFPCLHHSQNLLRAVSNMLQKARQTLEFYPCTSEEIDHEDITKDKTSTVEACLPLELTKNESCLNSRETSFITNGSCLASRKTSFMMALCLSSIYEDLKMYQVEFKTMNAKLLMDPKRQIFLDQNMLAVIDELMQALNFNSETVPQKSSLEEPDFYKTKIKLCILLHAFRIRAVTIDRVMSYLNASDKTHTCPPCPAPEDEGGPSVFLFPPKPKDTLMISRTPEVTCVVVDVSHEDPEVKFNWYVDGVEVHNAKTKPREEQYNSTYRVVSVLTVLHQDWLNGKEYKCKVSNKALPAPIEKTISKAKGQPREPQVYVYPPSREEMTKNQVSLTCLVKGFYPSDIAVEWESNGQPENNYKTTPPVLDEDGSFALVSKLTVDKSRWQQGNVFSCSVMHEALHNHYTQKSLSLSPGK heavy 2: EVQLQQSGPELVKPGASVKMSCKASGYTFTDYYMKWVKQSHGKSLEWIGHINPNNDDTFYTQKFKGRATLTVDKSSSTAYMQLNSLTSEDSAVYYCVRDDYDGGWFAYWGQGTLVTVSSASTKGPSVFPLAPSSKSTSGGTAALGCLVKDYFPEPVTVSWNSGALTSGVHTFPAVLQSSGLYSLSSVVTVPSSSLGTQTYICNVNHKPSNTKVDKKVEPKSCDKTHTCPPCPAPEKKGGPSVFLFPPKPKDTLMISRTPEVTCVVVDVSHEDPEVKFNWYVDGVEVHNAKTKPREEQYNSTYRVVSVLTVLHQDWLNGKEYKCKVSNKALPAPIEKTISKAKGQPREPQVYVLPPSREEMTKNQVSLLCLVKGFYPSDIAVEWESNGQPENRYMTWPPVLDSDGSFFLYSKLTVDKSRWQQGNVFSCSVMHEALHNHYTQKSLSLSPGK light: DIQMTQTTSSLSASLGDRVTISCRASQDINNYLNWYQQKSDGTIKLLIYYTSRSYSGVPSRFSGSGSGTDYSLTISNRRQEDIATYFCQQGKTLPWTFGGGTKLEIKRTVAAPSVFIFPPSDEQLKSGTASVVCLLNNFYPREAKVQWKVDNALQSGNSQESVTEQDSKDSTYSLSSTLTLSKADYEKHKVYACEVTHQGLSSPVTKSFNRGEC | 0% | no binding | – | – | – | – | –
Fab-IL-12(F60A)-Fc-CD8 Ab (other) heavy 1: EVQLQQSGPELVKPGASVKMSCKASGYTFTDYYMKWVKQSHGKSLEWIGHINPNNDDTFYTQKFKGRATLTVDKSSSTAYMQLNSLTSEDSAVYYCVRDDYDGGWFAYWGQGTLVTVSSASTKGPSVFPLAPSSKSTSGGTAALGCLVKDYFPEPVTVSWNSGALTSGVHTFPAVLQSSGLYSLSSVVTVPSSSLGTQTYICNVNHKPSNTKVDKKVEPKSCDKPGSGIWELKKDVYVVELDWYPDAPGEMVVLTCDTPEEDGITWTLDQSSEVLGSGKTLTIQVKEAGDAGQYTCHKGGEVLSHSLLLLHKKEDGIWSTDILKDQKEPKNKTFLRCEAKNYSGRFTCWWLTTISTDLTFSVKSSRGSSDPQGVTCGAATLSAERVRGDNKEYEYSVECQEDSACPAAEESLPIEVMVDAVHKLKYENYTSSFFIRDIIKPDPPKNLQLKPLKNSRQVEVSWEYPDTWSTPHSYFSLTFCVQVQGKSKREKKDRVFTDKTSATVICRKNASISVRAQDRYYSSSWSEWASVPCSGGGGSGGGGSGGGGSGGGGSGRNLPVATPDPGMFPCLHHSQNLLRAVSNMLQKARQTLEFYPCTSEEIDHEDITKDKTSTVEACLPLELTKNESCLNSRETSFITNGSCLASRKTSFMMALCLSSIYEDLKMYQVEFKTMNAKLLMDPKRQIFLDQNMLAVIDELMQALNFNSETVPQKSSLEEPDFYKTKIKLCILLHAFRIRAVTIDRVMSYLNASDKTHTCPPCPAPEDEGGPSVFLFPPKPKDTLMISRTPEVTCVVVDVSHEDPEVKFNWYVDGVEVHNAKTKPREEQYNSTYRVVSVLTVLHQDWLNGKEYKCKVSNKALPAPIEKTISKAKGQPREPQVYVYPPSREEMTKNQVSLTCLVKGFYPSDIAVEWESNGQPENNYKTTPPVLDEDGSFALVSKLTVDKSRWQQGNVFSCSVMHEALHNHYTQKSLSLSPGK heavy 2: EVQLQQSGPELVKPGASVKMSCKASGYTFTDYYMKWVKQSHGKSLEWIGHINPNNDDTFYTQKFKGRATLTVDKSSSTAYMQLNSLTSEDSAVYYCVRDDYDGGWFAYWGQGTLVTVSSASTKGPSVFPLAPSSKSTSGGTAALGCLVKDYFPEPVTVSWNSGALTSGVHTFPAVLQSSGLYSLSSVVTVPSSSLGTQTYICNVNHKPSNTKVDKKVEPKSCDKTHTCPPCPAPEKKGGPSVFLFPPKPKDTLMISRTPEVTCVVVDVSHEDPEVKFNWYVDGVEVHNAKTKPREEQYNSTYRVVSVLTVLHQDWLNGKEYKCKVSNKALPAPIEKTISKAKGQPREPQVYVLPPSREEMTKNQVSLLCLVKGFYPSDIAVEWESNGQPENRYMTWPPVLDSDGSFFLYSKLTVDKSRWQQGNVFSCSVMHEALHNHYTQKSLSLSPGK light: DIQMTQTTSSLSASLGDRVTISCRASQDINNYLNWYQQKSDGTIKLLIYYTSRSYSGVPSRFSGSGSGTDYSLTISNRRQEDIATYFCQQGKTLPWTFGGGTKLEIKRTVAAPSVFIFPPSDEQLKSGTASVVCLLNNFYPREAKVQWKVDNALQSGNSQESVTEQDSKDSTYSLSSTLTLSKADYEKHKVYACEVTHQGLSSPVTKSFNRGEC | 1.2% | no binding | – | – | – | – | –
IL-12(E59A/F60A)/anti-PD-1(D100G) (other) heavy 1: QVQLVESGGGVVQPGRSLRLDCKASGITFSNSGMHWVRQAPGKGLEWVAVIWYDGSKRYYADSVKGRFTISRDNSKNTLFLQMNSLRAEDTAVYYCATNGDYWGQGTLVTVSSASTKGPSVFPLAPSSKSTSGGTAALGCLVKDYFPEPVTVSWNSGALTSGVHTFPAVLQSSGLYSLSSVVTVPSSSLGTQTYICNVNHKPSNTKVDKKVEPKSCDKPGSGIWELKKDVYVVELDWYPDAPGEMVVLTCDTPEEDGITWTLDQSSEVLGSGKTLTIQVKAAGDAGQYTCHKGGEVLSHSLLLLHKKEDGIWSTDILKDQKEPKNKTFLRCEAKNYSGRFTCWWLTTISTDLTFSVKSSRGSSDPQGVTCGAATLSAERVRGDNKEYEYSVECQEDSACPAAEESLPIEVMVDAVHKLKYENYTSSFFIRDIIKPDPPKNLQLKPLKNSRQVEVSWEYPDTWSTPHSYFSLTFCVQVQGKSKREKKDRVFTDKTSATVICRKNASISVRAQDRYYSSSWSEWASVPCSGGGGSGGGGSGGGGSGGGGSGRNLPVATPDPGMFPCLHHSQNLLRAVSNMLQKARQTLEFYPCTSEEIDHEDITKDKTSTVEACLPLELTKNESCLNSRETSFITNGSCLASRKTSFMMALCLSSIYEDLKMYQVEFKTMNAKLLMDPKRQIFLDQNMLAVIDELMQALNFNSETVPQKSSLEEPDFYKTKIKLCILLHAFRIRAVTIDRVMSYLNASDKTHTCPPCPAPEDEGGPSVFLFPPKPKDTLMISRTPEVTCVVVDVSHEDPEVKFNWYVDGVEVHNAKTKPREEQYNSTYRVVSVLTVLHQDWLNGKEYKCKVSNKALPAPIEKTISKAKGQPREPQVYVYPPSREEMTKNQVSLTCLVKGFYPSDIAVEWESNGQPENNYKTTPPVLDEDGSFALVSKLTVDKSRWQQGNVFSCSVMHEALHNHYTQKSLSLSPGK heavy 2: QVQLVESGGGVVQPGRSLRLDCKASGITFSNSGMHWVRQAPGKGLEWVAVIWYDGSKRYYADSVKGRFTISRDNSKNTLFLQMNSLRAEDTAVYYCATNGDYWGQGTLVTVSSASTKGPSVFPLAPSSKSTSGGTAALGCLVKDYFPEPVTVSWNSGALTSGVHTFPAVLQSSGLYSLSSVVTVPSSSLGTQTYICNVNHKPSNTKVDKKVEPKSCDKTHTCPPCPAPEKKGGPSVFLFPPKPKDTLMISRTPEVTCVVVDVSHEDPEVKFNWYVDGVEVHNAKTKPREEQYNSTYRVVSVLTVLHQDWLNGKEYKCKVSNKALPAPIEKTISKAKGQPREPQVYVLPPSREEMTKNQVSLLCLVKGFYPSDIAVEWESNGQPENRYMTWPPVLDSDGSFFLYSKLTVDKSRWQQGNVFSCSVMHEALHNHYTQKSLSLSPGK light: not shown | – | – | 130 nM | 130 nM | 33% | 17% | < 0.2%
